Results taken from US20230190718A1, “METHODS FOR THE TREATMENT OF PANCREATITIS AND PREVENTION OF PANCREATIC CANCER” (BOARD OF REGENTS, THE UNIVERSITY OF TEXAS SYSTEM, priority 2020, published 2023).
Entries after “also recorded” stand apart in the source; their conditions may differ.

Key:
[1] = test system: repeated caerulein-induced pancreatitis in iKRAS animals; assay: Pharmacological modulation of ADM in iKRAS mice rechallenged with caerulein (repeated pancreatitis); format: in vivo
Protocol: To explore the hypothesis that ADM is a physiologic, fast and reversible adaptation mediated by epithelial memory that limits the detrimental effects of repeated pancreatitis, the effects of pharmacological modulation of ADM was evaluated in iKRAS animals subjected to repeated inflammation.
(§1) Induction of acute pancreatitis. […] Control mice received injections of pyrogen-free PBS. Mice were examined daily for health conditions and sacrificed at the indicated time points by CO2 asphyxiation and cervical dislocation.
For ADM quantification two hematoxylin/eosin-stained 10×-magnification fields of whole-mount pancreata from two mice each experimental group were analyzed with ImageJ. ADM areas, expressed in pixels, were normalized to control (rechallenged) mice considered as reference.
Images, then, were analyzed with ImageJ and CC3 specific signal, expressed as area (pixels), was normalized to total pancreatic parenchyma using DAPI. From six to nine 4×-magnification fields of whole-mount pancreata from three mice each experimental group were analyzed.

[2] = test system: Caerulein-induced pancreatitis; assay: Pretreatment with ADM inducers in caerulein-induced pancreatitis: histology (ADM) and CD45 infiltration; format: in vivo, mice; settings: EGF 1.2 mg/kg i.p., two injections a day for four days, before caerulein; 24 hrs after caerulein; compared with sulindac
Description: Epigenetic modifiers: Recently, the emerging role of epigenetic regulation has led to the development of a wide spectrum of small molecules targeting selectively bromodomain and extra-terminal (BET) protein family which are currently under evaluation in preclinical model of hematological malignancies and solid tumors (Asangani et al., 2014; Delmore et al., 2011; Filippakopoulos et al., 2010). Leveraging the persistent chromatin modifications induced by an acute inflammatory event, the possibility of limiting the detrimental effects of repeated pancreatitis was tested through the administration of INCB054329, a BRD4 inhibitor currently in phase I-II clinical studies in patients with advanced malignancies (Falchook et al., 2019).
as §1
DAPI nuclear counterstaining was also performed.

[3] = EGF at pharmacological doses before induction of pancreatitis
[4] = iKRAS mice pretreated before and during CAE rechallenge, p<0.01

B1: EGF (protein, UniProt P01133 23-1207, looked up)
Pro-epidermal growth factor: PQHWSCPEGTLAGNGNSTCVGPAPFLIFSHGNSIFRIDTEGTNYEQLVVDAGVSVIMDFHYNEKRIYWVDLERQLLQRVFLNGSRQERVCNIEKNVSGMAINWINEEVIWSNQQEGIITVTDMKGNNSHILLSALKYPANVAVDPVERFIFWSSEVAGSLYRADLDGVGVKALLETSEKITAVSLDVLDKRLFWIQYNREGSNSLICSCDYDGGSVHISKHPTQHNLFAMSLFGDRIFYSTWKMKTIWIANKHTGKDMVRINLHSSFVPLGELKVVHPLAQPKAEDDTWEPEQKLCKLRKGNCSSTVCGQDLQSHLCMCAEGYALSRDRKYCEDVNECAFWNHGCTLGCKNTPGSYYCTCPVGFVLLPDGKRCHQLVSCPRNVSECSHDCVLTSEGPLCFCPEGSVLERDGKTCSGCSSPDNGGCSQLCVPLSPVSWECDCFPGYDLQLDEKSCAASGPQPFLLFANSQDIRHMHFDGTDYGTLLSQQMGMVYALDHDPVENKIYFAHTALKWIERANMDGSQRERLIEEGVDVPEGLAVDWIGRRFYWTDRGKSLIGRSDLNGKRSKIITKENISQPRGIAVHPMAKRLFWTDTGINPRIESSSLQGLGRLVIASSDLIWPSGITIDFLTDKLYWCDAKQSVIEMANLDGSKRRRLTQNDVGHPFAVAVFEDYVWFSDWAMPSVMRVNKRTGKDRVRLQGSMLKPSSLVVVHPLAKPGADPCLYQNGGCEHICKKRLGTAWCSCREGFMKASDGKTCLALDGHQLLAGGEVDLKNQVTPLDILSKTRVSEDNITESQHMLVAEIMVSDQDDCAPVGCSMYARCISEGEDATCQCLKGFAGDGKLCSDIDECEMGVPVCPPASSKCINTEGGYVCRCSEGYQGDGIHCLDIDECQLGEHSCGENASCTNTEGGYTCMCAGRLSEPGLICPDSTPPPHLREDDHHYSVRNSDSECPLSHDGYCLHDGVCMYIEALDKYACNCVVGYIGERCQYRDLKWWELRHAGHGQQQKVIVVAVCVVVLVMLLLLSLWGAHYYRTQKLLSKNPKNPYEESSRDVRSRRPADTEDGMSSCPQPWFVVIKEHQDLKNGGQPVAGEDGQAADGSMQPTSWRQEPQLCGMGTEQGCWIPVSSDKGSCPQVMERSFHMPSYGTQTLEGGVEKPHSLLSANPLWQQRALDPPHQMELTQ
modifications: Pro-epidermal growth factor
notes: growth factor used as MAPK agonist / ADM inducer
[1]; [3]
  ADM formation: largely promoted ADM formation
  tissue damage, evaluated as number of cells positive for cleaved caspase 3: strong reduction of tissue damage
[1]; [4]
  decreased tissue damage as indicated by CC3 immunostaining: ~8 fold
  increase of ADM formation (relative area) with respect to control mice rechallenged with CAE alone: ~3 fold
[2]
  infiltration of CD45 cells (marker of inflammation): almost completely suppressed; also recorded: significant decrease of CD45 infiltration
